Measured values: PMC7939481

Target: human CaV2.1 (P/Q-type) voltage-gated calcium channel (human)

τ activation of hCaV2.1 macroscopic current with co-expressed human Gβ1γ2, after a +150 mV prepulse: 3.26 ms
τ activation of hCaV2.1 macroscopic current with co-expressed human Gβ1γ2, without prepulse (1.16-1.20 ms without G proteins): 10.6 ms
Substance: human G-protein Gβ1γ2 heterodimer (from UniProt P62873-1 1-340; P59768 1-71) (complex)
